These results are taken from patent publication US20050054106.

The data set concerns the target T1, PhiC31 integrase (Streptomyces phage PhiC31) (UniProt Q9T221).
T1 sequence: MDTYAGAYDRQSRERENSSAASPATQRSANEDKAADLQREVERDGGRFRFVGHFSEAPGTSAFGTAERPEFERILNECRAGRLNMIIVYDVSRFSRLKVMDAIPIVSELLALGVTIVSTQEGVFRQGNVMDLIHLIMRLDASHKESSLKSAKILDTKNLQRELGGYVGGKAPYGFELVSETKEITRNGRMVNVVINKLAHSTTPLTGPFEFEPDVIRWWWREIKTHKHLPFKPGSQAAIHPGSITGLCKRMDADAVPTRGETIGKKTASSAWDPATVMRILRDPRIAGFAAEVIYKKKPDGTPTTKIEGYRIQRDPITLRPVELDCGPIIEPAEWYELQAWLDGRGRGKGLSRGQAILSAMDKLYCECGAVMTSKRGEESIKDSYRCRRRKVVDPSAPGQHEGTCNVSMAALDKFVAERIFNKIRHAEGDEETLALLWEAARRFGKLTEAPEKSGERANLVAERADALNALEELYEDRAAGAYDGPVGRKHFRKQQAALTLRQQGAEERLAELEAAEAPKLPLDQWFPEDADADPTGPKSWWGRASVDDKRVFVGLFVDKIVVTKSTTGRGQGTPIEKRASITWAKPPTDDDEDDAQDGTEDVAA
As to the kind of experiment: cell_activity. To be noted: S. pombe FY527attP, pLT45+pLT43; 63 without integrase, 120 with thiamine repression.

Turning to “attB (pLT45, 500 bp fragment) ; attP 84 bp (pLT44)”, the activity (transformants per 10^7 cells) was 1100.
